Measurements published in PMC8406172, “Mechanism of DNA Interaction and Translocation by the Replicase of a Circular Rep-Encoding Single-Stranded DNA Virus” (mBio, 2021).

Key:
[1] = target: porcine circovirus 2 (PCV2) replicase (Rep) (porcine circovirus 2 (PCV2b)); test: cryo-EM structure
[2] = tested on: Nc1ccn([C@@H]2O[C@H](COP(=O)(O)OP(=O)(O)OP(=O)(O)O)[C@@H](O)[C@H]2O)c(=O)n1; test: purified protein; settings: 66 nM Rep, room temperature; copurifying DNA present
Excerpt: (§1) NTP/NADH-coupled spectrophotometric assay (pyruvate kinase / lactate dehydrogenase) on PCV2 Rep (replicase)

[3] = tested on: Nc1nc2c(ncn2[C@@H]2O[C@H](COP(=O)(O)OP(=O)(O)OP(=O)(O)O)[C@@H](O)[C@H]2O)c(=O)[nH]1; test: purified protein; settings: 66 nM Rep, room temperature; copurifying DNA present
Excerpt: as §1

[4] = tested on: O=c1ccn([C@@H]2O[C@H](COP(=O)(O)OP(=O)(O)OP(=O)(O)O)[C@@H](O)[C@H]2O)c(=O)[nH]1; test: purified protein; settings: 66 nM Rep, room temperature; copurifying DNA present
Excerpt: as §1

Substance	stoichiometry N [1]	K0.5 [2] [µM]	kcat [2] [s⁻¹]	K0.5 [3] [µM]	kcat [3] [s⁻¹]	K0.5 [4] [µM]	kcat [4] [s⁻¹]
porcine circovirus 2 (PCV2) replicase (Rep) (enzyme)	6	–	–	–	–	–	–
PCV2 Rep (replicase) (Porcine circovirus 2)	–	284.4	0.16	577.2	0.56	78.5	0.24
